Results: paper PMC7078472

B1: unnamed (parent)
chain 1: VHQRIASWQNLGAVYCSTVVPSDDVTVVYQNGLPVISVRLPSRRERCQFTLKPISDSVGVFLRQLQEEDRGIDRVAIYSPDGVRVAASTGIDLLLLDDFKLVINDLTYHVRPPKRDLLSHENAATLNDVKTLVQQLYTTLCIEQHQLNKERELIERLEDLKEQLAPLEKVRIEISRKAEKRTTLVLWGGLAYMATQFGILARLTWWEYSWDIMEPVTYFITYGSAMAMYAYFVMTRQEYVYPEARDRQYLLFFHKGAKKSRFDLEKYNQLKDAIAQAEMDLKRLRDPLQVHLPLRQIGEKD
chain 2: DIDTAAKFIGAGAATVGVAGSGAGIGTVFGSLIIGYARNPSLKQQLFSYAILGFALSEAMGLFCLMVAFLILFAM

Variants of: B1
Assay: MYTH (membrane yeast two-hybrid) quantitative β-Gal activity assay
Conditions: with partner chain of the complex shown; yeast strain NMY51; n = 3; 6 colonies for each independent experiment; read off a plot

Variant | response [units]
chain 1 Q196A I199P L200P W205A | 26
